Assay results as given in patent publication US6358728B1, “Mutations in nucleic acid molecules encoding 11-CIS retinol dehydrogenase, the mutated proteins, and uses thereof” (The President & Fellows of Havard College, priority 1999, dated 2002).
Where a chain is given by its changes, count along the chain named.

B1: wild type enzyme: wild type human 11-cis retinol dehydrogenase (RDH5) expressed in COS-1 cells (protein, UniProt Q92781 1-318, looked up)
Retinol dehydrogenase 5: MWLPLLLGALLWAVLWLLRDRQSLPASNAFVFITGCDSGFGRLLALQLDQRGFRVLASCLTPSGAEDLQRVASSRLHTTLLDITDPQSVQQAAKWVEMHVKEAGLFGLVNNAGVAGIIGPTPWLTRDDFQRVLNVNTMGPIGVTLALLPLLQQARGRVINITSVLGRLAANGGGYCVSKFGLEAFSDSLRRDVAHFGIRVSIVEPGFFRTPVTNLESLEKTLQACWARLPPATQAHYGGAFLTKYLKMQQRIMNLICDPDLTKVSRCLEHALTARHPRTRYSPGWDAKLLWLPASYLPASLVDAVLTWVLPKPAQAVY
B2: Gly238Trp mutant: mutant human 11-cis retinol dehydrogenase (RDH5), Gly to Trp at amino acid 238 (protein, UniProt Q92781 1-318, looked up, variant G238W)
Retinol dehydrogenase 5: B1 Retinol dehydrogenase 5 with G238W
B3: Ser73Phe mutant: mutant human 11-cis retinol dehydrogenase (RDH5), Ser to Phe at amino acid 73 (protein, UniProt Q92781 1-318, looked up, variant S73F)
Retinol dehydrogenase 5: B1 Retinol dehydrogenase 5 with S73F

What was measured:
[1] = target: T1, wild type 11-cis retinol dehydrogenase (Homo sapiens, UniProt Q92781); experiment: Km and Vmax of wild type enzyme, oxidation of 11-cis retinol to 11-cis retinal by microsomes, HPLC; type: biochemical; conditions: 2 μg microsomal protein, 8-minute incubations, 5 mM NAD, 37° C., Lineweaver-Burk, average of duplicates 7.1 and 9.6
T1 construct: expressed in transfected cells; host or cells: COS-1 cells (microsomes), vector pSG5
T1 sequence (Q92781 1-318): B1 Retinol dehydrogenase 5
Description: To monitor the ability of the wild-type and mutant enzymes to catalyze the oxidation of 11-cis retinol to 11-cis retinal, 11-cis retinol, which had been synthesized by reduction of 11-cis retinal with NaBH4 and stored under argon at −80° C., was added to reaction mixtures containing microsomes from the transfected cells.
The enzyme reactions, in a total volume of 100 μp were carried out in 50 mM Tris-HCl buffer pH7.5 containing 5 mM NAD or NADH, […] 11-cis retinol, or 11-cis retinal, and microsomes at 37° C. All manipulations of retinoids were performed in dim light. The reactions were stopped by putting the tubes on ice, and the retinoids were immediately extracted with 200 μl n-hexane. Subsequently, 75 μl aliquots were analyzed by reverse-phase HPLC using a C18 column. The mobile phase was acetonitrile/water (85/15, v/v), and the column was eluted under isocratic conditions at a flow rate of 1 ml/min. 11-cis retinol and 11-cis retinal eluted at 12.0-12.2 and 14.0-14.3 minutes, respectively. Retinoids were quantified at 320 and 370 nm. […] Formed 11-cis retinal was quantified in the HPLC analyses, and the Km and Vmax values were calculated from Lineweaver-Burk plots. The values were compensated for the extraction efficiency (60-70%, as determined experimentally).

[2] = system: 11-cis retinol dehydrogenase (RDH5); experiment: Relative activities of wild type and mutant enzymes, oxidation of 11-cis retinol (forward reaction), microsomes, HPLC; type: biochemical, human; conditions: for ability to catalyze oxidation of 11-cis-retinol to 11-cis-retinal: 10 minutes at 37° C., 5 mM NAD, 50 μM 11-cis-retinol, mutant 20 μg, wild type 2 μg microsomes; for fold activity above background activity (mock transformants) / fold less activity than wild type enzyme: after 40 minutes incubation
Description: (§1) The relative activities of the wild type and mutant enzymes were then determined. To do this, microsomes containing a mutant enzyme (20 μg), or wild type enzyme(2 μg) together with 18 μg of microsomal protein from mock-transfected cells, to standardize the experimental conditions, or no enzyme were combined with 50 mM Tris-HCl buffer (pH 7.5), containing 5 mM of NAD, and 50 μM 11-cis-retinol (forward, oxidation reaction) or 5 mM NADH and 50 μM 11-cis-retinal (reverse, reduction reaction) in a total volume of 100 μl. 50 μM 11-cis retinol is approximately a seven-fold higher substrate concentration than the estimated Km value for the wild-type enzyme. The mixtures were incubated for 10 minutes at 37° C., after which the reactions were stopped by putting the mixtures on ice. Retinoids were extracted immediately with 200 μl of n-hexane. Subsequently, 75 μl aliquots were analyzed via reversed phase HPLC using a C18 column. The mobile phase was acetonitrile/water (85:15 v/v), and the column was eluted under isocratic conditions at a flow rate of 1 ml/min. The 11-cis-retinol eluted at 12.0-12.2 minutes, and 11-cis-retinal at 14.0-14.3 minutes. Retinoids were quantified at 320 (retinol) and 370 (retinal) nm. Relative activities of wild-type and mutant enzymes were calculated as the ratio of formed 11-cis retinal by transfected versus mock-transfected microsomes. The results were normalized for the total extracted retinoid content from each reaction.
The Gly238Trp mutant was tested further, to determine if it had any activity, by incubating for 20 and 40 minute periods before extracting retinoids. Wild type and Ser73Phe mutant were used as controls.

[3] = target: T2, 11-cis retinol dehydrogenase (RDH5) (Homo sapiens, UniProt Q92781); experiment: Relative activities of wild type and mutant enzymes, reduction of 11-cis retinal (reverse reaction), microsomes, HPLC; type: biochemical; conditions: 10 minutes at 37° C., 5 mM NADH, 50 μM 11-cis-retinal
T2 construct: expressed in transfected cells; host or cells: COS-1 cells (microsomes), vector pSG5
T2 sequence (Q92781 1-318): B1 Retinol dehydrogenase 5
Description: as §1, with “The results were normalized for the total extracted retinoid content from each reaction.” left out

Row | Molecule | Vmax [1] [nmol/mg protein/minute] | ability to catalyze oxidation of 11-cis-retinol to 11-cis-retinal [2] | fold activity above background activity (mock transformants) [2] [fold] | ability to catalyze reduction of 11-cis-retinal to 11-cis-retinol (reverse reaction) [3] | fold less activity than wild type enzyme [2]
1 | CC1=C(/C=C/C(C)=C/C=C\C(C)=C\CO)C(C)(C)CCC1 [11-cis retinol] | 8.4 |  |  |  | 
2 | B1 |  | exhibited the expected ability to catalyze the oxidation | 42.9 ± 4.5 | catalyzed the reverse reaction | 
3 | B2 |  | no activity above background level | 2.2±0.14 |  | approximately 19 fold
4 | B3 |  | residual activity | 9.1±1 |  | approximately 5 fold
